B1: library; numbered along this chain (parent)
chain: MAAAAAAAAEQQSSNGPVKKSMREKAVERRSVNKEHNSNFKAGYIPIDEDRLHKTGLRGRKGNLAICVIILLFILAVINLIITLVIWAVIRIGPNGCDSMEFHESGLLRFKQVSDMGVIHPLYKSTVGGRRNENLVITGNNQPIVFQQGTTKLSVENNKTSITSDIGMQFFDPRTQNILFSTDYETHEFHLPSGVKSLNVQKASTERITSNATSDLNIKVDGRAIVRGNEGVFIMGKTIEFHMGGNMELKAENSIILNGSVMVSTTRLPSSSSGDQLGSGDWVRYKLCMCADGTLFKVQVTSQNMGCQISDNPCGNTH

Variants of: B1
Assay: SGCB cell-surface expression functional score (HA stain, bin4 vs bin1, normalised to synonymous) (log10 ratio); higher = more cell-surface SGCB (functional)
Method in brief: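 Using lentivirus at MOI <0.1, HA-tagged, YFP-fused human beta-sarcoglycan codon-saturation libraries were put into HEK293 cells with stable alpha-, gamma- and delta-sarcoglycan expression, in duplicate transductions. YFP-positive cells were collected by sorting 72 hours later, grown 5–7 days, stained on ice with Alexa Fluor 647 anti-HA, fixed, sorted into four 5% intensity bins and amplicon-sequenced. The functional score takes the median, across codons and transductions, of the log ratio of highest-bin to lowest-bin variant frequency. Within each section, synonymous variants were scaled to mean 0, SD 0.5.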

SGCB cell-surface expression functional score (log10): each site, then its substitutions
T205: G -1.7 | L -0.11 | H -0.99 | A -0.17 | M -0.07 | P -0.48 | I -0.16 | Q -2.06 | R -1.93 | N -1.69 | S -0.16 | C -0.21 | V -0.05 | E -0.93 | K -2.61 | F -0.9 | D -1.46
S197: F -2.04 | M -1.08 | E -0.43 | G -0.19 | D -0.76 | W 0.4 | L 0.24 | A -0.6 | C 0.14 | P -2.03 | R -0.6 | H -0.72 | I -0.04 | K -0.3 | Q 0.43 | Y -1.16 | N -0.61 | T -0.2 | V 1.76
L191: T -1.31 | H -1.37 | D -1.17 | A -1.71 | S -1.19 | V -0.49 | R -1.37 | M 0.28 | Y -1.61 | Q -1.1 | I -0.16 | W -0.06 | E -1.09 | C -0.5 | P -1.47 | K -0.32 | N -2.28 | G -1.07 | F -0.08
H187: N -0.57 | Y -0.18 | R -0.76 | V 0.03 | P -1.29 | W 0.48 | Q -0.38 | S -0.12 | T -1.03 | M -0.22
N199: A -0.02 | F 0.74 | G -0.38 | L -0.05 | K 0.02 | Q 0.86 | I -0.28 | H 0.18 | P -1.11 | R -0.3 | M -0.42 | D 0.38 | W 1.05 | S 0.26 | T 0.07 | C -0.28 | V 0.22 | E -0.68 | Y -0.67
P192: L -1.17 | W -1.19 | I -2.12 | R -1.04 | Q -2.22 | G -0.57 | Y -1.09 | H -1.15 | A -1.12 | S -0.21 | E -1.13 | N -1.53 | C -0.78 | T -1.46 | K -1.31 | F -0.5 | V -1.19 | M -1.22 | D -1.49
K202: C -0.1 | I -0.27 | G -0.02 | D -1.97 | E -0.96 | R 0.09 | F -1.04 | P -0.97 | V -0.17 | M 0.2 | W -0.14 | Y -0.69 | H -1.29 | L 0.04 | S 0.02 | Q 0.17 | N -0.53 | T 0.12 | A -0.2
V200: A -0.04 | Q -0.73 | L -0.58 | D -1.23 | S -1.59 | M -0.63 | T -2.11 | C -1.14 | N -3.23 | Y -1.16 | I 0.17 | E -2.93 | K -2.94 | H -2.51 | G -1.65 | R -1.87 | F -1.83 | W -1.75 | P -1.16
A203: L 0 | S -1.01 | Q -0.5 | M 0.612 | W -0.3 | C 0.38 | G -1.02 | R -1.46 | V -0.13 | T -0.59 | E -0.01 | D -1.81 | H -1.81 | P -0.92 | F -0.62 | K -1.01 | Y -2.13 | I -0.24
L198: P -1.18 | N -1.95 | T -2.13 | M -0.81 | S -1.39 | F 0.25 | V -0.55 | K -1.58

— the supplement of paper PMC10266784
